Experimental data reported in the RNAGym collection of RNA variant scans (doi:10.1073/pnas.2313332121).

B1: TPR t1 (parent)
chain: GACCAAUCUGCCCUCAGAGCUCGAGAACAUCUUCGGAUGCAGAGGAGGCAGGCUUCGGUGGCGCGAUAGCGCCAACGUCCUCAACCUCCAAUGCAUCCCACCACAUGAUGAUGCCUGAAGAGCCUUGGUUUUUUG

Variants of: B1
Experiment: polymerase ribozyme fitness, log enrichment relative to wild type (log ratio); higher = more active; in vitro selection for triplet polymerase activity
In short: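 Mutant libraries were PCR-built and transcribed for each subunit of a heterodimeric triplet polymerase ribozyme and selected for one round in triplicate at −7 °C, frozen, before gel excision of extended constructs and streptavidin-bead capture. Input and output libraries were Illumina-sequenced, keeping genotypes with ≥10 input reads and ≥1 read per output. Fitness is a logarithmic ratio of genotype to wild-type enrichment, in base 2, using inverse-variance-weighted replicate averages.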

Variant | polymerase ribozyme fitness (log ratio)
GACCAAUCUGCUCUCAGAGCUCGAGAACAUCUUCGGAUGCAGAGGAGGCAGGCUUCGGUGGCGCGAUAGCGCCAACGUCCUCAACCUCCAAUGCAUCCCACCACAUGAUGAUGCCUGAAGAGCAUUGGUUUUUUG | 1.8
GACCAAUCUGCUCUCAUAGCUCGAGAACAUCUUCGGAUGCAGAGGAGGCAGGCUUCGGUGGCGCGAUAGCGCCAACGUCCUCAACCUCCAAUGCAUCCCACCACAUGAUGAUGCCUGAAGAGCCUUGGUUUUUUG | -0.854
GACCAAUCUGCUCUCAGAGCUCGAGAACAUCUUCGGAUGCAGACGAGGCCGGCUUCGGUGGCGCGAUAGCGCCAACGUCCUCAACCUCCAAUGCAUCCCACCACAUGAUGAUGCCUGAAGAGCCUUGGUUUUUUG | -0.802
GACCAAUCUGCUCUCAGAGCUCGAGAACAUCUUCGGAUGCAGAGGAGGCAGGCUUCGAUGGAGCGAUAGCGCCAACGUCCUCAACCUCCAAUGCAUCCCACCACAUGAUGAUGCCUGAAGAGCCUUGGUUUUUUG | -1.76
GACCAAUCUGCUCUCAGAGCUCGAGAACAUCUUCGGAUGCAGAGGAUGCAGGCUUCGGUGGCGCGAUAGCGCCAACGUCCUCCACCUCCAAUGCAUCCCACCACAUGAUGAUGCCUGAAGAGCCUUGGUUUUUUG | -2.09
GACCAAUCUGCUCUCAGAGCUCGAGAACAUCUUCGGAUCCAGAGUAGGCAGGCUUCGGUGGCGCGAUAGCGCCAACGUCCUCAACCUCCAAUGCAUCCCUCCACAUGAUGAUGCCUGAAGAGCCUUGGUUGUUUG | -3
GACCAAUCUGCUCUCAGAGCUCGAGAACAUCUUCGGAUGCAGAGGAGGCAGGCUUCGGUGGCGCGAUAGCGCCAACGUCUUCAACCUCUAAUGCAUCCUACCACAUGAUGAUGCCUGAAAAGCCUUGGUUUUUUG | -2.97
GACCAAUCUGCUCUCAGAGCUCGAGAACAUCUUCGGAUGCAGAGGAGGCAGACUUCGGUGGCGCGAUAGCGCCAACGUCCUCAACCUCCAAUGCAUCCCACCACAUGAUGAAGCCUGAAAAGCCUUGGUUUUUUG | 1.03
GACCAAUCUGCUCUCAGAGCUCGAGAACAUCUUCGGAUGCAGAGGAUGCAGGCUUCGGUGGCGCGAUAGCGCCAACGUCCUCAACGUCCAAUGCAUCCCACCACAUGAUGAUGCCUGAAGAACCUUGGUUUUUUG | 0.433
GACCAAUCUGCUCUCAGAGCUCGAGAACAUCUUCGGAUGCAGAGGAGGCAGGCUUCGGUGGCGCGAUAGCGCCAACGUCCUCAACCUCCAAUGCAUCCCACAACAUGAUGAUGCCUGAAGAGCCUUGGUUUUUUG | -1.07
GACCAAUCUGCUCUCAGAGCUCGAGAACAUCUUCGGAUGCAGAGGACGCAGGCUUCGGUGGCGCGAUAGCGCCAACGUCCUCAACCUCCAAUGCAUGCCACCACAUGAUGAUGCCUGAACAGCCUUGGUUUUUUG | -3.35
GACCAAUCUGCUCUCAGAGCUCGAGAACAUCUUCGGAUGCAGAGGAGGCAGGCUUCGGUGGCGCGAUAGCGCCAACGUCCUCAACCUCCAAUGCAUCCCAUCACAUGAUGAUGCCUGAAGAGCCUUGGUUUUUUG | -0.102
GACCAAUCUGCUCUCAGAGCUCGAGAACAUCUUCGGAUGCAGAGGAGGCAGGCUUCGGUGGCGCGAUAGCGCCAACGUCCUCAACCUCCAAUGCAUCCCACCACAUGAUGAUGCCUGAAGAGACUUGGUUUUUUG | 2.11
GACCAAUCUGCUCUCAGAGCUCGAGAACAUCUUCGUAUGCAGAGGAUGCAGGCUUCGGUGGCGCGAUAGCGCCAACGUCCUCAACCUCCAAUGCAUCCCACCACAGGAUGAUGCCUGAAGAGCCUUGGUUUUUUG | -5.66
GACCAAUCUGCUCUCAGAGCUCGAGAACAUCUUCGGAUGCAGAGGAGGCAGGCUUCGGUGGCGCGAUAGCGCCAACGUCCUCAACCUCCAAUGCAUCCCACAACAUGAUGAUGCCUGAAGAGCUUUGGUUUUUUG | 0.00391
GACCAAUCUGCUCUCAGAGCUCGAGAACAUCUUCGGAUGCAGAGGAGGCAGGCUUCGGUGGCGCGAUAGCGCCAACGUGCUCAACCUCCAAUGCAUCCCAUCACAUGAUGAUGCCUGAAAAGCCUUGGUUUUUUG | 0.377
GACCAAUCUGCUCUCAGAACUCGAGAACAUCUUCGGAUGCAGAGGAGGCAGGCUUGGGUGGCGCGAUAGCGCCAACGUCCUCAACCUCCAAUGCAUCCCACCACAUGAUGAUGCCUGAAGAGCCUUGGUCUUUUG | -2.66
GACCAAUCUGCUCUCAGAGCUCGAGAACAUCUUCGGAUGCAGAGGAAGCAGGCUUCGGUGGCGCGAUAGCGCCAACGUCCUCAACCUCCAAUGCAUCCCACCACAUGAUGAUUCCUGAAGAGCCUUGGUUUUUUG | -3.45
GACCAAUCUGCUCUCAGAGCUCGAGAACAUCUUCAGAUGCAUAGGAGGCAGGCUUCGGUGGCGCGAUAGCGCCAACGUCCUCAACCUCCAAUGCAUCCCACCACAUGAUGACGCCUGAAGAGCCUUGGUUUUUUG | -5.14
GACCAAUCUGCUCUCAGAGCUCGAGAACAUCUUCGGAUGCACAGGAGGCAGGAUUCGGUGGCGCGAUAGCUCCAACGUCCUCAACCUGCAAUGCAUCCCACCACAUGAUGAUGCCUGAAGAGCCUUGAUUUUUUU | -6.24
GACCAAUCUGCUCUCAGAGCUCGAGAACAUCUUCGGAUGCAGAGGAGGCAGGCUUCAGUGGCGCGAUAGCGCCAACGUCCUCAACCUCCAAUGCAUCCCACCACAUGAUGAUGCCUGAAGAGCCUUGGUUUUUUG | -0.879
